Measurements from patent US20150132305A1 (ADHERON THERAPEUTICS, published 2015).

T1: recombinant Cad-11 EC1 human IgG1 fusion protein (R&D Systems Cat. No. 1790-CA-050) (human, UniProt P55287 54-617, limits assumed)
T1 construct: bought; also called recombinant human Cad-11 EC1; recombinant human Cad-11 fusion protein; not shown: human IgG1 part
T1 sequence: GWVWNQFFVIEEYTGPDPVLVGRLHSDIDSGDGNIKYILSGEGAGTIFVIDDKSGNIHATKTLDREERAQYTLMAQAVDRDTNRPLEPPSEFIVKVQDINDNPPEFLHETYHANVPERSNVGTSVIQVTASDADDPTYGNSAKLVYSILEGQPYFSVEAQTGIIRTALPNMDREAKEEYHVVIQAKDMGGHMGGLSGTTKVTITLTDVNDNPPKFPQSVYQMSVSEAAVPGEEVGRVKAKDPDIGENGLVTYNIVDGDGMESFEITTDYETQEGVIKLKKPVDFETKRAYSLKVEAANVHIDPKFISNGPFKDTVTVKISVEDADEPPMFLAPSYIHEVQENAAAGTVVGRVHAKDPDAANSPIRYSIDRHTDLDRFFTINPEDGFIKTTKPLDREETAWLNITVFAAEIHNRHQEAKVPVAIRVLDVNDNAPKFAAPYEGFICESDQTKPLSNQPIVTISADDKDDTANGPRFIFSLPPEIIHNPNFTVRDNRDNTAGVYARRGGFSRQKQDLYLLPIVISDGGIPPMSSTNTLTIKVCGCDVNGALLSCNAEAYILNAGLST


Key:
[1] = target: T1, recombinant Cad-11 EC1 human IgG1 …; assay: competition ELISA against biotinylated SYN0012/H1M1 (competitor) on coated fusion protein; text says values are normalised to the IC50 of SYN0012
Description: (§1) The binding of the purified humanized composite variant antibodies (SDP011 to SDP151) to a recombinant Cad-11 EC1 human IgG1 fusion protein was assessed in a competition binding ELISA. A dilution series from 5 μg/ml to 0.0022 μg/ml of the humanized or control (SYN0012/H1M1) antibodies was premixed with a constant concentration of biotinylated murine anti-Cad-11 antibody, SYN0012/H1M1 (0.1 μg/ml, final concentration), before incubating for 1 hour at room temperature on a NUNC-IIMMUNO™ MAXISORP™ 96 well flat bottom microtitre plate (Fisher Cat. No. DIS-971-030J) pre-coated with 0.25 μg/ml recombinant human Cad-11 EC1 (R&D Systems Cat. No. 1790-CA-050) diluted in PBS. The binding of the biotinylated mAb was detected with streptavidin-HRP (Sigma Cat. No. 55512) and tetramethylbenzidine (TMB) substrate (Invitrogen Cat. No. 00-2023).
(§2) All of the humanized anti-Cad-11 antibodies efficiently competed with SYN0012 for binding to the Cad-11 fusion protein (FIGS. 38A to C). […] The curves were used to calculate IC50 values for each antibody and these were normalized to the IC50 of SYN0012, which was included on each ELISA plate so that comparisons between plates could be made (Table 3). The expression levels of each cell line and the calculated isoelectric point (pI) of each antibody are also shown (Table 3).
The relative IC50 was calculated by dividing the value for the test antibody by that of SYN0012. Antibody expression levels given are for static cultures in T flasks. PI are calculated.

[2] = target: T1, recombinant Cad-11 EC1 human IgG1 …; assay: competition ELISA on coated recombinant human Cad-11 EC1 fusion protein against biotinylated SYN0012 (0.1 µg/ml)
Description: as §1, §2

[3] = target: T1, recombinant Cad-11 EC1 human IgG1 …; assay: competition ELISA: antibody dilution series premixed with 0.1 µg/ml biotinylated SYN0012/H1M1, plate coated with recombinant human Cad-11 EC1 fusion protein, streptavidin-HRP, OD450
Description: as §1, §2

Row | Binder | IC50 [1] [µg/mL] | IC50 (read off the curve) [2] [µg/mL] | IC50 (read off the curve) [3] [µg/mL]
1 | SDP081 humanized anti-Cad-11 EC1 antibody (Vκ2/VH3) (antibody, IgG4, V domains shown, humanized IgG4 (S241P), kappa) VH: EVQLVQSGAEVKKPGASVKISCKASGYSFTGYFMNWVRQAPGQGLEWIGRINPYTGDTFYNQKFKGRATLTVDKSTSTAYMELSSLRSEDTAVYYCGRLGSRYWYFDVWGQGTTVTVSS VL: DVLMTQTPLSSPVTLGQPASISCRSSQSIIHSNGNTYLEWYLQKPGQSPQLLIYKVSNRFSGVPDRFSGSGSGTDFTLKISRVEAEDVGVYYCFQGSHVPWTFGQGTKLEIK | 0.42 |  | 
2 | SDP091 humanized anti-Cad-11 EC1 antibody (Vκ2/VH4) (antibody, IgG4, V domains shown, humanized IgG4 (S241P), kappa) VH: EVQLVQSGAEVKKPGASVKVSCKASGYSFTGYFMNWVRQAPGQGLEWIGRINPYTGDTFYNQKFKGRATITVDKSTSTAYMELSSLRSEDTAVYYCGRLGSRYWYFDVWGQGTTVTVSS VL: DVLMTQTPLSSPVTLGQPASISCRSSQSIIHSNGNTYLEWYLQKPGQSPQLLIYKVSNRFSGVPDRFSGSGSGTDFTLKISRVEAEDVGVYYCFQGSHVPWTFGQGTKLEIK | 0.57 |  | 
3 | SDP021 humanized anti-Cad-11 EC1 antibody (Vκ1/VH2) (antibody, IgG4, V domains shown, humanized IgG4 (S241P), kappa) VH: EVQLVQSGAEVKKPGASVKISCKASGYSFTGYFMNWVKQAPGQGLEWIGRINPYTGDTFYNQKFKGRATLTVDKSTSTAYMELSSLRSEDTAVYYCGRLGSRYWYFDVWGQGTTVTVSS VL: DVLMTQTPLSSPVTLGQPASISCRSSQSIIHSNGNTYLEWYLQKPGQSPQLLIYKVSNRFSGVPDRFTGSGSGTDFTLKISRVEAEDVGVYYCFQGSHVPWTFGQGTKLEIK | 0.67 | ~0.1 | 
4 | SDP041 humanized anti-Cad-11 EC1 antibody (Vκ1/VH4) (antibody, IgG4, V domains shown, humanized IgG4 (S241P), kappa) VH: EVQLVQSGAEVKKPGASVKVSCKASGYSFTGYFMNWVRQAPGQGLEWIGRINPYTGDTFYNQKFKGRATITVDKSTSTAYMELSSLRSEDTAVYYCGRLGSRYWYFDVWGQGTTVTVSS VL: DVLMTQTPLSSPVTLGQPASISCRSSQSIIHSNGNTYLEWYLQKPGQSPQLLIYKVSNRFSGVPDRFTGSGSGTDFTLKISRVEAEDVGVYYCFQGSHVPWTFGQGTKLEIK | 0.65 | ~0.1 | 
5 | SDP011 humanized anti-Cad-11 EC1 antibody (Vκ1/VH1) (antibody, IgG4, V domains shown, humanized IgG4 (S241P), kappa) VH: EVQLVQSGPELKKPGASVKISCKASGYSFTGYFMNWVKQAHGQGLEWIGRINPYTGDTFYNQKFKGRATLTVDKSSSTAYMELVSLSSEDSAVYYCGRLGSRYWYFDVWGQGTTVTVSS VL: DVLMTQTPLSSPVTLGQPASISCRSSQSIIHSNGNTYLEWYLQKPGQSPQLLIYKVSNRFSGVPDRFTGSGSGTDFTLKISRVEAEDVGVYYCFQGSHVPWTFGQGTKLEIK | 0.91 | ~0.2 | 
6 | SDP031 humanized anti-Cad-11 EC1 antibody (Vκ1/VH3) (antibody, IgG4, V domains shown, humanized IgG4 (S241P), kappa) VH: EVQLVQSGAEVKKPGASVKISCKASGYSFTGYFMNWVRQAPGQGLEWIGRINPYTGDTFYNQKFKGRATLTVDKSTSTAYMELSSLRSEDTAVYYCGRLGSRYWYFDVWGQGTTVTVSS VL: DVLMTQTPLSSPVTLGQPASISCRSSQSIIHSNGNTYLEWYLQKPGQSPQLLIYKVSNRFSGVPDRFTGSGSGTDFTLKISRVEAEDVGVYYCFQGSHVPWTFGQGTKLEIK | 0.84 | ~0.2 | 

Now from value to binder:

Row | IC50 [1] [µg/mL] | IC50 (read off the curve) [2] [µg/mL] | IC50 (read off the curve) [3] [µg/mL] | Binder
7 | 0.68 |  | ~0.2 | SDP111 humanized anti-Cad-11 EC1 antibody (Vκ3/VH1) (antibody, IgG4, V domains shown, humanized IgG4 (S241P), kappa) VH: EVQLVQSGPELKKPGASVKISCKASGYSFTGYFMNWVKQAHGQGLEWIGRINPYTGDTFYNQKFKGRATLTVDKSSSTAYMELVSLSSEDSAVYYCGRLGSRYWYFDVWGQGTTVTVSS VL: DVVMTQTPLSSPVTLGQPASISCRSSQSIIHSNGNTYLEWYLQKPGQSPQLLIYKVSNRFSGVPDRFSGSGSGTDFTLKISRVEAEDVGVYYCFQGSHVPWTFGQGTKLEIK
8 | 0.72 |  | ~0.2 | SDP151 humanized anti-Cad-11 EC1 antibody (Vκ3/VH5) (antibody, IgG4, V domains shown, humanized IgG4 (S241P), kappa) VH: EVQLVQSGAEVKKPGASVKVSCKASGYSFTGYFMNWVRQAPGQGLEWIGRINPYTGDTFYNQKFKGRVTITVDKSTSTAYMELSSLRSEDTAVYYCGRLGSRYWYFDVWGQGTTVTVSS VL: DVVMTQTPLSSPVTLGQPASISCRSSQSIIHSNGNTYLEWYLQKPGQSPQLLIYKVSNRFSGVPDRFSGSGSGTDFTLKISRVEAEDVGVYYCFQGSHVPWTFGQGTKLEIK
9 | 0.52 |  | ~0.2 | SDP121 humanized anti-Cad-11 EC1 antibody (Vκ3/VH2) (antibody, IgG4, V domains shown, humanized IgG4 (S241P), kappa) VH: EVQLVQSGAEVKKPGASVKISCKASGYSFTGYFMNWVKQAPGQGLEWIGRINPYTGDTFYNQKFKGRATLTVDKSTSTAYMELSSLRSEDTAVYYCGRLGSRYWYFDVWGQGTTVTVSS VL: DVVMTQTPLSSPVTLGQPASISCRSSQSIIHSNGNTYLEWYLQKPGQSPQLLIYKVSNRFSGVPDRFSGSGSGTDFTLKISRVEAEDVGVYYCFQGSHVPWTFGQGTKLEIK
10 | 0.61 |  | ~0.2 | SDP141 humanized anti-Cad-11 EC1 antibody (Vκ3/VH4) (antibody, IgG4, V domains shown, humanized IgG4 (S241P), kappa) VH: EVQLVQSGAEVKKPGASVKVSCKASGYSFTGYFMNWVRQAPGQGLEWIGRINPYTGDTFYNQKFKGRATITVDKSTSTAYMELSSLRSEDTAVYYCGRLGSRYWYFDVWGQGTTVTVSS VL: DVVMTQTPLSSPVTLGQPASISCRSSQSIIHSNGNTYLEWYLQKPGQSPQLLIYKVSNRFSGVPDRFSGSGSGTDFTLKISRVEAEDVGVYYCFQGSHVPWTFGQGTKLEIK
11 | 0.55 |  | ~0.2 | SDP131 humanized anti-Cad-11 EC1 antibody (Vκ3/VH3) (antibody, IgG4, V domains shown, humanized IgG4 (S241P), kappa) VH: EVQLVQSGAEVKKPGASVKISCKASGYSFTGYFMNWVRQAPGQGLEWIGRINPYTGDTFYNQKFKGRATLTVDKSTSTAYMELSSLRSEDTAVYYCGRLGSRYWYFDVWGQGTTVTVSS VL: DVVMTQTPLSSPVTLGQPASISCRSSQSIIHSNGNTYLEWYLQKPGQSPQLLIYKVSNRFSGVPDRFSGSGSGTDFTLKISRVEAEDVGVYYCFQGSHVPWTFGQGTKLEIK
12 | 0.53 |  |  | SDP101 humanized anti-Cad-11 EC1 antibody (Vκ2/VH5) (antibody, IgG4, V domains shown, humanized IgG4 (S241P), kappa) VH: EVQLVQSGAEVKKPGASVKVSCKASGYSFTGYFMNWVRQAPGQGLEWIGRINPYTGDTFYNQKFKGRVTITVDKSTSTAYMELSSLRSEDTAVYYCGRLGSRYWYFDVWGQGTTVTVSS VL: DVLMTQTPLSSPVTLGQPASISCRSSQSIIHSNGNTYLEWYLQKPGQSPQLLIYKVSNRFSGVPDRFSGSGSGTDFTLKISRVEAEDVGVYYCFQGSHVPWTFGQGTKLEIK
